# Assay: soluble on expression in E. coli; label from the status in PepcDB or PDB records
row,Sequence,soluble on expression in E. coli
1,MSLQNADRLSREYVAGVNFLLSNQQDKAVDLFLEMLKEDSSAFEAHLTLGNLFRSRGEVERAIRIHQSLMESASLTFDQRLLATQQLGRDYMSAGLYDRAENMFAQLVNEKDFQENAFQSLLTIYQSTSDWKKAIDIAEKLVKSGKHDLREKIAHFYCELALQEMSGDDLDEAIGYLNKAVQADKNCARVSIMLGRLFMARQEYNKAADALKSVLEQDKQLVSEVLPILQECYQHQNQIDEWENFLKRCVEEDCGATAELLLADIIEQQKGHEVAQTYINHRLERHPTMRLFYRLMDYHLAEAEEGRAKESIILLRDMVGEQIRTKPNYRCHKCGFTSHSLYWHCPSCRSWDSIKPIRGLDGQEGHHHHHH,not soluble
2,MSLQNFQTEEISALIQNYDFDKALYKLKSHYSDMTFKEADSLLLANNIVYSENNETQQQQYLANLDTLLRDINNNHSEIASFTIYKNDMILVNTHNLYNHGFYKINSSLENIYFNLSEITDNDDQFAKYFKLLNLFFSTISRDAILSTSDKFNDIAIRKHEHSTNISTAFSQIFNECLKSKFEKNNVKTLFAELATYDIIEILNELIENHLKDTSYHLDNFVEAFTGNVMNSSIIIENLYHQIVVQNKLLQLVLLSFLFLDFDTNIFGDKIETLLDINYKQTFFMSFYEFDSKLTQSSMSMHTLQYPHGVQIFSSSELAGYLEFEIATLYSTPIVDSRLYIAFMQEYVLNWREKMEPPQKAINFFKYILEPLYRRNEIDEEFLLAMSMFNCGRFEQAYEFFTMNDYMLHLANKLPPFLKNVQQNSLWYELLKTFTESSTNAHYYLQLSLLFKTYNRLDLALKCVSKSVEYSMKHPSVEEGHHHHHH,soluble
3,MSLQPALGVLVASSQPLDQYVVRHPDFFADASPEHARTAPDQPLILFDHIRCAAFELPFIASEPFGPIDPLVFLEVLAESEVIHQEGDRWEWIADSYPATAVSLRSVADGNFVVVDKSDGKQQIIAEVDYSAAALTLYEGAIHMVQSRPYQVERLDWAGRKAYVTRTHVDYYTDSIDYTKLKVLDRFDGGVAGRGDSHHGEVHVVRRVSGYKKIRYYTHENIGYGPVNLPDQELHTTAVWWQLPQATLGKAFEGHHHHHH,soluble
4,MSLQPVAKTEQPEGGILYDFGKETFGFITLKNLSGKGKIDLYYGESPEEAKDKAYCETLDKLLLEPGQITDLAIRSTSPLHHSDNEYTLENSKAFRYVYITHEPEVQIGEVSMQYEYLPEEYRGNFRCNDEELNCIWEVGAYTMHLTTREFFIDGIKRDRWVWSGDAIQSYLMNYYLFFDSESVKRTIWLLRGKDPVTSHSNTIMDYTFYWFLSVYDYYMYSGDRHFVNQLYPRMQTMMDYVLGRTNKNGMVEGMSGDWVFVDWADGYLDKKGELSFEQVLFCRSLETMALCADLVGDKDGQQKYEKLASALKAKLEPTFWNNQKQAFVHNCVDGRQSDAVTRYANMFSVFFDYLNADKQQAIKQSVLLNDEILKITTPYMRFYELEALCALGEQETVMKEMKAYWGGMLKAGATSFWEKYNPEESGTQHLAMYGRPYGKSLCHAWGASPIYLLGKYYLGVKPTKEGYKEFAVSPVLGGLKWMEGTVPTPNGDIHVYMDNKTIKVKATEGKGYLTIQSREGHHHHHH,not soluble
5,MSLQQPLAYRMRPRHLDEVVGQQHLVGPGKIIRRMVEAKMLSSMILYGPPGTGKTSIASAIAGSTNYAFRMLNAATDTKKDLQIVAEEAKMSGTVILLLDEIHRLDKTKQDFLLPHLENGRIIMIGATTENPYITINPAIRSRTQIFEVKPLTETDIQQAIQEALTDSTRGLGDYPVHLEEKALQHLTRATNGDLRSALNGLELAVKSTPKNEQGEIKITLPIIEECVQRKALTHVKDGDAHYDVISAFQKSIRGSDVDAALHYLGRLVEAGDLPIICRRLMVIAYEDIGLGNPAAAARTVTAVQAAEKLGFPEARIPLASVVIDLCLSPKSNSAVTAIDAALADIRQGSVGDVPDHLRDAHYAGAKELNRGIGYQYPHNFENGWVNQQYLPDKLKEARYYEPIDIGKYEQALHQQLKRIQEWKEGHHHHHH,soluble
6,MSLQRVQIMGAGALGSLVGALIQLAGYDVIFVARGKQLEALKKGLRVSGLKNAELKVYCTSQPEDADITFVTVKAYDTETVAKKLAEVDAGVVCSLQNGVGNEEILAKYCRKVLGGVTTYGANLKDYGHVVYAGEGYTYVGEMDGRVSGEAEMVAEVLRDAGMRAEAVNDIEFRIWAKAVVNAAINPITAICRVKNGEVVRNPHLWEVARAVADEGRQVMARMGYEFDAASEVRKVAEMTAENRSSMLQDLERGKRTEVEFINGAIVKKGEEFGIDCAVNRTLLNLVRGVESGEGHHHHHH,soluble
7,MSLQTKILIIDGDKDNCQKLKGFLEEKGISIDLAYNCEEAIGKIFSNKYDLIFLEIILSDGDGWTLCKKIRNVTTCPIVYMTYINEDQSILNALNSGGDDYLIKPLNLEILYAKVKAILRRMNSYVNNNENNTKLEEYNRTSGVIKLEDKIIKLTPTENKLLNFFIENPEKTLTTKEIYEHVWMNEYLEDNYSVVVAVNGLRKKIEKDYKNPQKIITIRGAGYYFNKEGHHHHHH,soluble
8,MSLQYQVVPVTAFAQNCSIVWCDETMEGIVVDPGGDVKQLAMLIAELGVKVTQLVLTHGHLDHVGGTQSLAQALGGTRVVGPHKADNFWLQGLEGQSKMFGFPLTEAFEPDEWLDDGDVIHFGQQTLQVIHTPGHTPGHVVLFSEAARLAFVGDVLFNGSIGRTDFPQGDFNTLIASIKNKLWPLGSDVTFIPGHGPQSTFGRERASNPFVADEMPLY,not soluble
9,MSLRAAKRHGISIIVAEKNLILGLDVGNTVIKAVLFDTAGRQIAQHAIDGHSTYPQPGYVERDLEELWRNGCEAIRQLLVKSAVDPNSIAGVGCAGHGNGLYLLDKEQQPLLGIQSLDSRAADMAAELDRKSGDLLQARCLQRPWPAQTPTLLAWVKRHALDLYAQTSTVLFCKDFINFRLTGCLANDISDLSGAGLLALPEVLLDRELLSLYGLEDAFAFFPRCVESADIVGQVTREAAGLTGLSEGTPVIGGFFDVVSSAMGSGVINPGEASVIAGTWSINQVFADKPVVSPDVFMVTTFGRDRYVNIESSATSAANLEWYVHRVRADHGDHAFERCNELVGSVTPRADDPFFHPFIFGSRLGAEFRGGFYGLAGWHGEGHMVRALFEGVCFEHRRHIGVLREAGLPVESAVMSGGGSRSQHWPQIMADVLEIPLRVAEARETGALGAALGAAVATGLYPNYEEAVAAMTRVQNSYQPDTARVSHYRRRYGLYQELTGQLRSFWSALRLPQEGHHHHHH,not soluble
10,MSLRFTTISKAYDNVTTDDTQYRILIVEDDRSQALFAQSVLQGAGIHAQIEMSASEVLKVIEDYRPDLILMDLNMPELDGISLTTLIRQQPNQLLLPIVFLSGDTDPEKQFEVLDSGADDFLTKPIQPRHLIAAVSNRMHRLRQQQQNAQQADTQINIQKTSITELQTRIHIVEQLEVALSSGAQGALFFIEVSSALNLRTRYGYTAFERLMNQVEYHLAQEAHPYSLARISDHSFLLLAIDLAATEHQALATHLREHLATLPLPIQDDELVHLRSAIGYAPLNQGFKNADDAVECTESATLEARQNNEGIYAYVPLRTPENTGHLALLDGQLELAYQPIVEVAGSDTAQYQVLLRLRKADGNLLSAGLVIPAAEAAGRIMELDQQVIEQALDILKLHQDTNQQLRLFVSQSVRTLIHEGFSDWIIKNLRERNVNGTGLVIDLRLQDAVIHAIPLKQLCKELLKHNVKFCLSQFESNSEATVLFSELPLNFVRLSQHFGDAHNHPERQKELPLLIEQAHEHNLHVIGQCIEDAQAATFMWMNGVDLIQGNLFQNVSKDLNFNFHDMVLEGHHHHHH,soluble
11,MSLRHFFGAFLLGMATLTVMPTEQVLAGTLTGQPPIVIGHRGASGYRPEHTLAAYELAIQMGADYIEPDLVATKDGVLVARHENALAILNADGTLNLTDTSTDVFERLQFADRKTTKVIDGRSITGWFTEDFTLAELKTLRAIERIPGIRPQNTQYDRQFEIPTLQEVIDLAKAQSAALGRTIGIYPETKHPTYFDSIGLSMEEILVSVLNANGYVDESAPVYIQSFEVSNLKDLNRLTNVSLVQLISPSGRPYDFVVNGDSRLYRDLITPLGLAEIATYANGIGANKNLIIPRDGRGNLLSPTTLVDDAHAAGLIVHAWTFRNEDVFLPTNLQGNPQEEYKRFYQTGIDGLFSDNPDTAFAVRSTLVPEPGTIFGLGFVPLLGWLFRRRKEGHHHHHH,not soluble
